Laboratory results reported in publication PMC7673989 (2020).

Columns and labels:
[1] = target: T1, KETWV peptide (synthetic construct); experiment: intrinsic tryptophan fluorescence quenching, 21 °C
T1 chain: KETWV

[2] = target: T1, KETWV peptide; experiment: ITC, 21 °C

B1: PSD-95 PDZ3 302-403 (protein)
chain: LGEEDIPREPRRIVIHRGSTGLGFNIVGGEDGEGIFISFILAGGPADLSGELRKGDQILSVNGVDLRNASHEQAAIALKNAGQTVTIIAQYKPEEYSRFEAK
- Kd [1]: 24.6 µM
- Kd [2]: 25.2 µM
